# Values quoted from earlier work in article PMC3164524.
# Biological target: pYAQL peptide
# Assay: SPR
substance,measurement,value
SHP-2 N-SH2 (from UniProt Q06124),Kd,0.26 µM
